Test [1] addresses T1, 食蟹猴PD-1-His (SB, Cat.No.90311-C08H) (cynomolgus monkey).
T1 construct: Purchased protein; also called cynomolgus PD-1-His
Nature of the test: ELISA, cynomolgus PD-1-His coated. A general note: ELISA stands for enzyme-linked immunosorbent assay.

The target in test [2] is T2, PD-1 on the surface of hPD-1-CHO-K1 cells (human, UniProt Q15116 25-288).
T2 construct: also called 细胞表面PD-1; CHO-K1-PD-1
Briefly: FACS on hPD-1-CHO-K1 cells.

Test [3] concerns the target 人PD-1-His蛋白 (自产; human PD-1 extracellular domain with His tag) (human, UniProt Q15116 25-170). Briefly: ELISA, human PD-1-His coated.
The target of test [4] is T3, 人CTLA-4-His蛋白 (human CTLA-4 extracellular domain fused to His tag) (human, UniProt P16410 36-161).
T3 construct: also called hCTLA-4-His
T3 sequence: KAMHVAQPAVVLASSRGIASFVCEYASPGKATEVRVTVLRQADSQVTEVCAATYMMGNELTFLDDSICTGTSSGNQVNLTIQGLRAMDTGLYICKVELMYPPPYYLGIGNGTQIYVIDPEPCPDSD
Nature of the test: ELISA, human CTLA-4-His coated.

人PD-1-His蛋白 (自产; human PD-1 extracellular domain with His tag), sequence (Q15116 25-170 limits assumed): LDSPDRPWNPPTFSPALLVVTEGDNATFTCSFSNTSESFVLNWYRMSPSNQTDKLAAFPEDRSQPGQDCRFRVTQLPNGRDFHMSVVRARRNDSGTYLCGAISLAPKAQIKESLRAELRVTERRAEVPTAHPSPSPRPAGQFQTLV
T2 sequence (Q15116 25-288 limits assumed): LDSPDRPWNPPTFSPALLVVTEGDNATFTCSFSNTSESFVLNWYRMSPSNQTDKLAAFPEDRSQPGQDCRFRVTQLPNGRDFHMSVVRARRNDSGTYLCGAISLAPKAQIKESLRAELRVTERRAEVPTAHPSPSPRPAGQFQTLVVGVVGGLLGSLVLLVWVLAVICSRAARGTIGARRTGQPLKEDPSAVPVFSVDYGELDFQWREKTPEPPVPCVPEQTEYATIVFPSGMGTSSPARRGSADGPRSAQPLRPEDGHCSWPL

B1: SHS006-HuP01-22 (antibody, V domains shown)
VH: QVQLVQSGAEVKKPGASVKVSCKASGYTFTWYHMSWVRQAPGQGLEYMGYINTRSGDTYYNEKFKGRVTMTTDTSTSTAYMELRSLRSDDTAVYYCARSGYGGSDYWGQGTLVTVSS
VL: DIVMTQSPDSLAVSLGERATINCKSSQNLLYSENKKNSLAWYQQKPGQPPKLLISWASTREFGVPDRFSGSGSGTDFTLTISSLQAEDVAVYYCEQYYDILPTFGGGTKVEIK
notes: also called SHS006-P01-22; 人源化抗PD-1抗体SHS006-HuP01-22
Broadly, the EC50 is the midpoint of the concentration-response curve. With B1, the values for the EC50 in test [1], in test [2] and in test [3] were 0.088 nM, 0.11 nM and 0.18 nM, respectively.

B2: HuC92-11 (antibody, V domains shown)
VH: QVQLVESGGGVVQPGRSLRLSCAASGFTFSNYAMSWVRQAPGKGLEWVAEISYSGTYSYHSDTVTGRFTISRDNSKNTLYLQMSSLRAEDTAVYYCTRRDYDNEMDYWGQGTLVTVSS
VL: DIQMTQSPSSLSASVGDRVTITCRTSQVITNYLNWYQQKPGKAPKLLIYYTSRLHSGVPSRFSGSGSGTDYTLTISSLQPEDFATYYCQQFGKRPPTFGGGTKVEIK
notes: also called SHS010-HuC92-11; 人源化抗CTLA-4抗体HuC92-11
B2 gave an EC50 in test [4] of 0.01 nM.

Source of the values: patent CN115010810A (NANJING SANHOME PHARMACEUTICAL CO LTD, dated 2022).
